{"source": "patent US20190071480A1", "about": "(Biogen, published 2019)", "binders": {"B1": {"name": "Recombinant polypeptide of clones 12 + 25 (designed binder)", "chain": "AQAKHKQYKRLKSSCKRHPLYTYPASPKPMRHKMRSCACCAGGLRNRTGTV"}, "B2": {"name": "Recombinant polypeptide of clones 12 + 28 (designed binder)", "chain": "AQAKHKQYKRLKSSCKRHPLYEPLGGARWEAFDVTDAVQSHRRSPRASRKCCLGLRAVTAS"}, "B3": {"name": "Recombinant polypeptide of clones 12 + 30 (designed binder)", "chain": "AQAKHKQYKRLKSSCKRHPLYTALDGTRGAQGSGGGGGGGGGGGGGGGGGGGGAGRGHGRRGRSRCSRKSLHVDFKELG"}, "B4": {"name": "Recombinant polypeptide of clones 9 + 11 (designed binder)", "chain": "AQAKHKGYKRLKSSCKRHPLYAQAKHKGRKRLKSSCKRHPLY"}, "B5": {"name": "Recombinant polypeptide of clones 11 + 9 (designed binder)", "chain": "AQAKHKGRKRLKSSCKRHPLYAQAKHKGYKRLKSSCKRHPLY"}, "B6": {"name": "Recombinant polypeptide of clones 26 + 16 (designed binder)", "chain": "TYPASPKPMRHSMRSCACCAGGLRNQTGTVVDFSDVGWNDWAVAPPGYHAFYCHGECPFPLADHLNSDNHAIVQTLVNSV"}, "B7": {"name": "Clone No. 24 domain (ActRIIBecd-associated polypeptide) (peptide)", "chain": "NSKDPKACCVPTELSAISMLYLDENEKVVLKNYQDMVVHGCGCR"}, "B8": {"name": "Recombinant polypeptide of clones 29 + 16 (designed binder)", "chain": "EPLGGARWEAFDVTDAVQSHRRSQRASRKCCLVLRAVTASVDFSDVGWNDWAVAPPGYHAFYCHGECPFPLADHLNSDNHAIVQTLVNSV"}, "B9": {"name": "Clone No. 25 domain (ActRIIBecd-associated polypeptide) (peptide)", "chain": "TYPASPKPMRHKMRSCACCAGGLRNRTGTV"}, "B10": {"name": "Clone No. 26 domain (ActRIIBecd-associated polypeptide) (peptide)", "chain": "TYPASPKPMRHSMRSCACCAGGLRNQTGTV"}, "B11": {"name": "Recombinant polypeptide of clones 28 + 12 (designed binder)", "chain": "EPLGGARWEAFDVTDAVQSHRRSPRASRKCCLGLRAVTASAQAKHKQYKRLKSSCKRHPLY"}, "B12": {"name": "Recombinant polypeptide of clones 23 + 24 (designed binder)", "chain": "NSKIPKACCVPTELSAISMLYLDENEKPVLKNYQDMVVEGCGCRNSKDPKACCVPTELSAISMLYLDENEKVVLKNYQDMVVHGCGCR"}, "B13": {"name": "Recombinant polypeptide of clones 24 + 23 (designed binder)", "chain": "NSKDPKACCVPTELSAISMLYLDENEKVVLKNYQDMVVHGCGCRNSKIPKACCVPTELSAISMLYLDENEKPVLKNYQDMVVEGCGCR"}, "B14": {"name": "Recombinant polypeptide of clones 16 + 29 (designed binder)", "chain": "VDFSDVGWNDWAVAPPGYHAFYCHGECPFPLADHLNSDNHAIVQTLVNSVEPLGGARWEAFDVTDAVQSHRRSQRASRKCCLVLRAVTAS"}, "B15": {"name": "Recombinant polypeptide of clones 30 + 12 (designed binder)", "chain": "TALDGTRGAQGSGGGGGGGGGGGGGGGGGGGGAGRGHGRRGRSRCSRKSLHVDFKELGAQAKHKQYKRLKSSCKRHPLY"}, "B16": {"name": "Recombinant polypeptide of clones 12 + 16 (designed binder)", "chain": "AQAKHKQYKRLKSSCKRHPLYVDFSDVGWNDWAVAPPGYHAFYCHGECPFPLADHLNSDNHAIVQTLVNSV"}, "B17": {"name": "Recombinant polypeptide of clones 17 + 18 (designed binder)", "chain": "VDFSDVGWNDWIVAPPGYHAFYCHGECPFPLADHLNSDNHAIVQTLVNSVVDFSDVGWNDHAVAPPGYHAFYCHGECPFPLADHLNSTNHAIVQTLVNSV"}, "B18": {"name": "Recombinant polypeptide of clones 16 + 26 (designed binder)", "chain": "VDFSDVGWNDWAVAPPGYHAFYCHGECPFPLADHLNSDNHAIVQTLVNSVTYPASPKPMRHSMRSCACCAGGLRNQTGTV"}, "B19": {"name": "Clone No. 28 domain (ActRIIBecd-associated polypeptide) (peptide)", "chain": "EPLGGARWEAFDVTDAVQSHRRSPRASRKCCLGLRAVTAS"}, "B20": {"name": "Clone No. 29 domain (ActRIIBecd-associated polypeptide) (peptide)", "chain": "EPLGGARWEAFDVTDAVQSHRRSQRASRKCCLVLRAVTAS"}}, "key": {"[1]": {"molecular_target": "T1, extracellular domain of activin receptor type IIB (ActRIIBecd), biotinylated (Homo sapiens (Human), UniProt Q13705 27-117, amino-biotinylated with amine-PEG3-Biotin)", "T1 construct": "immobilised on a streptavidin-coated sensor chip; also called biotinylated ActRIIBecd; extracellular domain of ActRIIB", "T1 sequence": "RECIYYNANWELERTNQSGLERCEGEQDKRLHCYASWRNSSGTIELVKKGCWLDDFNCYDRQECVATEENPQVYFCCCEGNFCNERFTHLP", "assay": "BIAcore SPR, biotinylated ActRIIBecd on chip; SD ±12.34 nM", "protocol": "(§1) Biosensor experiments. In one embodiment, experiments were performed on a BIAcore™ T100/T200 instrument (Pharmacia Biosensor AB) in the multichannel mode (serial flow path involving flow cells 1+2+3+4). Flow rate was 10 μl/min; temperature was 25° C.; and data were recorded at 2.5 points/s. All four segments of a sensor chip CMS were coated with streptavidin (Sigma) to a density of 2000 pg/mm² (2000 resonance units) by the aminocoupling procedure. ActRIIBecd (10 mg) and amine-PEG3-Biotin (10 mg, Pierce, Rockford, Ill.) were dissolved in 200 μl H₂O and 10 mg NaCNBH₃ was added to prepare biotinylated ActRIIBecd. The reaction mixture was heated at 70° C. for 24 h, after that a further 10 mg NaCNBH₃ was added and the reaction was heated at 70° C. for another 24 h. After cooling to room temperature, the mixture was desalted with the spin column (3,000 molecular weight cut off (MWCO)). […] Sensograms were recorded during flow of the analyte (the ActRIIBecd-associated polypeptides (i.e., domains) as previously described) first through flow cell 1 (control) then through flow cell 2 (biotinylated ActRIIBecd). […] The sensograms obtained at 1.11, 3.33, 10, 30, and 90 nM analyte were evaluated for equilibrium binding, association rate, and dissociation rate by using the programs supplied with the instrument (BIA evaluation 2.1; Software Handbook. 1995; Pharmacia Biosensor AB)."}, "[2]": {"molecular_target": "T1, extracellular domain of activin …", "assay": "BIAcore SPR, biotinylated ActRIIBecd on chip; SD ±16.11 nM", "protocol": "as §1"}, "[3]": {"molecular_target": "T1, extracellular domain of activin …", "assay": "BIAcore SPR, biotinylated ActRIIBecd on chip; SD ±12.47 nM", "protocol": "as §1"}, "[4]": {"molecular_target": "T1, extracellular domain of activin …", "assay": "BIAcore SPR, biotinylated ActRIIBecd on chip; SD ±19.71 nM", "protocol": "as §1"}, "[5]": {"molecular_target": "T1, extracellular domain of activin …", "assay": "BIAcore SPR, biotinylated ActRIIBecd on chip; SD ±18.15 nM", "protocol": "as §1"}, "[6]": {"molecular_target": "T1, extracellular domain of activin …", "assay": "BIAcore SPR, biotinylated ActRIIBecd on chip; SD ±13.69 nM", "protocol": "as §1"}, "[7]": {"molecular_target": "T1, extracellular domain of activin …", "assay": "BIAcore SPR, biotinylated ActRIIBecd on chip; SD ±13.59 nM", "protocol": "as §1"}, "[8]": {"molecular_target": "T1, extracellular domain of activin …", "assay": "BIAcore SPR, biotinylated ActRIIBecd on chip; SD ±12.89 nM", "protocol": "as §1"}, "[9]": {"molecular_target": "T1, extracellular domain of activin …", "assay": "BIAcore SPR, biotinylated ActRIIBecd on chip; SD ±14.15 nM", "protocol": "as §1"}, "[10]": {"molecular_target": "T1, extracellular domain of activin …", "assay": "BIAcore SPR, biotinylated ActRIIBecd on chip; SD ±16.14 nM", "protocol": "as §1"}, "[11]": {"molecular_target": "T1, extracellular domain of activin …", "assay": "BIAcore SPR, biotinylated ActRIIBecd on chip; SD ±18.67 nM", "protocol": "as §1"}, "[12]": {"molecular_target": "T1, extracellular domain of activin …", "assay": "BIAcore SPR, biotinylated ActRIIBecd on chip; SD ±15.74 nM", "protocol": "as §1"}, "[13]": {"molecular_target": "T1, extracellular domain of activin …", "assay": "BIAcore SPR, biotinylated ActRIIBecd on chip; SD ±17.84 nM", "protocol": "as §1"}, "[14]": {"molecular_target": "T1, extracellular domain of activin …", "assay": "BIAcore SPR, biotinylated ActRIIBecd on chip; SD ±18.14 nM", "protocol": "as §1"}, "[15]": {"molecular_target": "T1, extracellular domain of activin …", "assay": "BIAcore SPR, biotinylated ActRIIBecd on chip; SD ±13.71 nM", "protocol": "as §1"}, "[16]": {"molecular_target": "T1, extracellular domain of activin …", "assay": "BIAcore SPR, biotinylated ActRIIBecd on chip; SD ±19.51 nM", "protocol": "as §1"}, "[17]": {"molecular_target": "T1, extracellular domain of activin …", "assay": "BIAcore SPR, biotinylated ActRIIBecd on chip; SD ±19.56 nM", "protocol": "as §1"}, "[18]": {"molecular_target": "T1, extracellular domain of activin …", "assay": "BIAcore SPR, biotinylated ActRIIBecd on chip; SD ±19.11 nM", "protocol": "as §1"}, "[19]": {"molecular_target": "T1, extracellular domain of activin …", "assay": "BIAcore SPR, biotinylated ActRIIBecd on chip; SD ±14.42 nM", "protocol": "as §1"}, "[20]": {"molecular_target": "T1, extracellular domain of activin …", "assay": "BIAcore SPR, biotinylated ActRIIBecd on chip; SD ±13.44 nM", "protocol": "as §1"}}}
{"binder": "B1", "values": [{"measurement": "Kd", "setting": "[1]", "result": 51.2, "unit": "nM"}]}
{"binder": "B2", "values": [{"measurement": "Kd", "setting": "[2]", "result": 59.1, "unit": "nM"}]}
{"binder": "B3", "values": [{"measurement": "Kd", "setting": "[3]", "result": 59.1, "unit": "nM"}]}
{"binder": "B4", "values": [{"measurement": "Kd", "setting": "[4]", "result": 59.1, "unit": "nM"}]}
{"binder": "B5", "values": [{"measurement": "Kd", "setting": "[5]", "result": 58.2, "unit": "nM"}]}
{"binder": "B6", "values": [{"measurement": "Kd", "setting": "[6]", "result": 61.7, "unit": "nM"}]}
{"binder": "B7", "values": [{"measurement": "Kd", "setting": "[7]", "result": 56.7, "unit": "nM"}]}
{"binder": "B8", "values": [{"measurement": "Kd", "setting": "[8]", "result": 54.3, "unit": "nM"}]}
{"binder": "B9", "values": [{"measurement": "Kd", "setting": "[9]", "result": 41.1, "unit": "nM"}]}
{"binder": "B10", "values": [{"measurement": "Kd", "setting": "[10]", "result": 39.6, "unit": "nM"}]}
{"binder": "B11", "values": [{"measurement": "Kd", "setting": "[11]", "result": 57.9, "unit": "nM"}]}
{"binder": "B12", "values": [{"measurement": "Kd", "setting": "[12]", "result": 61.8, "unit": "nM"}]}
{"binder": "B13", "values": [{"measurement": "Kd", "setting": "[13]", "result": 62.7, "unit": "nM"}]}
{"binder": "B14", "values": [{"measurement": "Kd", "setting": "[14]", "result": 58.7, "unit": "nM"}]}
{"binder": "B15", "values": [{"measurement": "Kd", "setting": "[15]", "result": 61.1, "unit": "nM"}]}
{"binder": "B16", "values": [{"measurement": "Kd", "setting": "[16]", "result": 67.4, "unit": "nM"}]}
{"binder": "B17", "values": [{"measurement": "Kd", "setting": "[17]", "result": 65.8, "unit": "nM"}]}
{"binder": "B18", "values": [{"measurement": "Kd", "setting": "[18]", "result": 57.8, "unit": "nM"}]}
{"binder": "B19", "values": [{"measurement": "Kd", "setting": "[19]", "result": 53.8, "unit": "nM"}]}
{"binder": "B20", "values": [{"measurement": "Kd", "setting": "[20]", "result": 57.9, "unit": "nM"}]}
